Data reported in the supplement of paper PMC12855868.

B1: library; numbered along this chain (parent)
chain: MAAAGGARLLRAASAVLGGPAGRWLHHAGSRAGSSGLLRNRGPGGSAEASRSLSVSARARSSSEDKITVHFINRDGETLTTKGKVGDSLLDVVVENNLDIDGFGACEGTLACSTCHLIFEDHIYEKLDAITDEENDMLDLAYGLTDRSRLGCQICLTKSMDNMTVRVPETVADARQSIDVGKTS

Variants of: B1
Experiment: scaled log2 fold change in cell abundance, elesclomol vs control (0 = silent mean, 1 = nonsense mean) (scaled log2 ratio); higher = higher viability under elesclomol (loss of FDX1 cuproptosis function)
Conditions: glucose 10 mM
Method: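 Deep mutational scan of full-length human FDX1: a pooled saturation-mutagenesis ORF library (every residue 2-184 mutated to all 19 amino acids plus stop, and silent codons where available) was expressed by lentivirus in FDX1-knockout ABC1 (14 days) or HEK293T (11 days) cells grown with elesclomol (ES) or DMSO control. Variant abundance came from ORF sequencing. The log2 fold change (ES vs control, mean of duplicates) was centred on the silent-variant mean (0) and scaled to the nonsense-variant mean (1). Higher values mean greater viability under ES, i.e. loss of FDX1 function in cuproptosis.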

[1] = with ABC1 FDX1 KO, elesclomol 5 nM, 14 days
[2] = with HEK293T FDX1 KO, elesclomol 40 nM, 11 days
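Further: variant abundance is its share of total variant reads in each endpoint sample, from next-generation sequencing of the integrated ORF PCR-amplified out of genomic DNA.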

Row | Variant | scaled log2 fold change [1] | scaled log2 fold change [2]
1 | S54A | 0.19 | -0.116
2 | S54L | -0.261 | -0.248
3 | S54N | -0.135 | -0.939
4 | S54C | -0.019 | -0.176
5 | S54P | 0.151 | -0.0299
6 | S54H | -0.807 | –
7 | S54M | -0.399 | 0.147
8 | S54K | -0.175 | -1
9 | S54D | -0.0274 | -0.0231
10 | S54I | 0.459 | –
11 | S54F | 0.138 | 0.0641
12 | S54E | -0.297 | 0.751
13 | S54G | -0.1 | -0.00382
14 | E48S | 0.616 | 0.679
15 | E48T | 0.74 | -0.184
16 | E48D | 0.623 | 0.469
17 | E48Q | 0.747 | 0.877
18 | E48P | 0.619 | 0.304
19 | E48K | 0.46 | 0.746
20 | E48R | 0.787 | 0.683
21 | E48N | 0.628 | 1.08
22 | E48L | 0.58 | 1.05
23 | E48G | 0.667 | 0.934
24 | E48Y | 0.494 | 1.46

Row | Variant | scaled log2 fold change [1] | scaled log2 fold change [2]
25 | E48I | 0.367 | 0.905
26 | E48A | 0.411 | 0.683
27 | E48C | 0.731 | 0.336
28 | E48W | 0.73 | 0.677
29 | E48V | 0.47 | 0.255
30 | E48H | 0.521 | 0.92
31 | E48F | 0.809 | 0.523
32 | E48M | 0.829 | 0.835
33 | S46R | 0.93 | 0.639
34 | S46Y | 0.737 | 0.775
35 | S46A | 0.558 | 0.128
36 | S46I | 0.589 | 0.715
37 | S46V | 0.489 | 0.421
38 | S46Q | 0.68 | 0.186
39 | S46M | 0.376 | 0.185
40 | S46D | 0.694 | 0.458
41 | S46H | 0.263 | 1.09
42 | S46E | 0.844 | 0.526
43 | S46F | 0.279 | 0.769
44 | S46T | 0.617 | 0.182
45 | S46N | 0.338 | 0.643
46 | S46C | 0.738 | 0.494
47 | S46L | 0.572 | 0.692
48 | S46G | 0.864 | 0.651

Row | Variant | scaled log2 fold change [1] | scaled log2 fold change [2]
49 | S46P | 0.0875 | 0.866
50 | S46K | 0.678 | 0.519
51 | A49V | -0.0734 | –
52 | A49R | 0.181 | –
53 | A49S | 0.123 | 1.82
54 | A49Y | 0.29 | -1.02
55 | A49N | -0.529 | -0.853
56 | A49E | 0.155 | –
57 | A49T | 0.0135 | –
58 | A49M | -0.695 | -1.02
59 | A49H | 0.394 | 0.441
60 | A49K | 0.256 | -0.293
61 | A49W | 0.372 | -0.679
62 | A49D | 0.201 | –
63 | A49I | 0.653 | 1.22
64 | A49P | 0.382 | 0.203
65 | A49G | -0.302 | 0.424
66 | A49C | 0.313 | -0.749
67 | A49L | -1.05 | -0.62
68 | A49F | 0.00966 | -0.0173
69 | A49Q | 0.504 | 0.944
70 | R51Y | 0.343 | -0.174
71 | R51D | -0.0949 | -0.181
72 | R51H | -0.0671 | -0.14

Row | Variant | scaled log2 fold change [1] | scaled log2 fold change [2]
73 | R51A | 0.176 | -0.204
74 | R51C | 0.374 | -0.169
75 | R51W | 0.239 | 1.75
76 | R51P | 0.212 | –
77 | R51K | -0.103 | -1.33
78 | R51M | -0.235 | –
79 | R51T | 0.0589 | 0.546
80 | R51F | 0.269 | 0.664
81 | R51Q | -1.02 | -0.603
82 | R51N | -0.079 | 1.03
83 | R51S | 0.00287 | -0.516
84 | R51E | -0.316 | -0.168
85 | R51V | -0.873 | -0.419
86 | R51G | 0.508 | -0.712
87 | R51L | 0.0529 | -0.247
88 | G42R | 0.1 | -0.362
89 | G42D | -0.168 | 0.162
90 | G42E | -0.302 | 0.67
91 | G42I | 0.277 | 0.513
92 | G42P | 0.28 | -0.219
93 | G42V | 0.365 | -0.32
94 | G42F | -0.0705 | -0.21
95 | G42K | 0.0974 | 0.00685
96 | G42A | -0.139 | 0.0969

Row | Variant | scaled log2 fold change [1] | scaled log2 fold change [2]
97 | G42S | 0.232 | -0.298
98 | G42W | 0.29 | 1
99 | G42Y | 0.307 | –
100 | G42C | 0.12 | 0.316
101 | G42T | 0.268 | 0.377
102 | G42M | 0.0351 | 0.622
103 | G42N | 0.133 | -0.235
104 | G42L | 0.249 | 0.513
105 | G42H | 0.257 | -0.419
106 | G42Q | 0.242 | -0.336
107 | G45V | 0.149 | -0.648
108 | G45N | 0.148 | 0.842
109 | G45A | 0.315 | -0.00746
110 | G45K | 0.0509 | -0.713
111 | G45M | 0.116 | -0.315
112 | G45D | -0.348 | 0.907
113 | G45P | -0.0714 | -0.0345
114 | G45W | 0.411 | 0.942
115 | G45Q | 0.0494 | 0.513
116 | G45I | -0.00298 | -0.325
117 | G45C | 0.409 | -0.145
118 | G45T | 0.167 | -0.525
